Source: article PMC9245612 (Proceedings of the National Academy of Sciences of the …, 2022)

B1: human NADK2 mature protein (amino acids 47 to 442) (enzyme, UniProt Q4G0N4 47-442, looked up)
chain: LGQGQPRELAGCGSRADGGFRPSRVVVVAKTTRYEFEQQRYRYAELSEEDLKQLLALKGSSYSGLLERHHIHTKNVEHIIDSLRNEGIEVRLVKRREYDEETVRWADAVIAAGGDGTMLLAASKVLDRLKPVIGVNTDPERSEGHLCLPVRYTHSFPEALQKFYRGEFRWLWRQRIRLYLEGTGINPVPVDLHEQQLSLNQHNRALNIERAHDERSEASGPQLLPVRALNEVFIGESLSSRASYYEISVDDGPWEKQKSSGLNLCTGTGSKAWSFNINRVATQAVEDVLNIAKRQGNLSLPLNRELVEKVTNEYNESLLYSPEEPKILFSIREPIANRVFSSSRQRCFSSKVCVRSRCWDACMVVDGGTSFEFNDGAIASMMINKEDELRTVLLEQ
B2: human cytosolic NADK, full-length (enzyme, UniProt O95544 1-446, looked up)
chain: MEMEQEKMTMNKELSPDAAAYCCSACHGDETWSYNHPIRGRAKSRSLSASPALGSTKEFRRTRSLHGPCPVTTFGPKACVLQNPQTIMHIQDPASQRLTWNKSPKSVLVIKKMRDASLLQPFKELCTHLMEENMIVYVEKKVLEDPAIASDESFGAVKKKFCTFREDYDDISNQIDFIICLGGDGTLLYASSLFQGSVPPVMAFHLGSLGFLTPFSFENFQSQVTQVIEGNAAVVLRSRLKVRVVKELRGKKTAVHNGLGENGSQAAGLDMDVGKQAMQYQVLNEVVIDRGPSSYLSNVDVYLDGHLITTVQGDGVIVSTPTGSTAYAAAAGASMIHPNVPAIMITPICPHSLSFRPIVVPAGVELKIMLSPEARNTAWVSFDGRKRQEIRHGDSISITTSCYPLPSICVRDPVSDWFESLAQCLHWNVRKKQAHFEEEEEEEEEG

Key:
SEC = target: the molecule itself; assay: SEC
purified protein = substrate: Nc1ncnc2c1ncn2[C@@H]1O[C@H](COP(=O)(O)OP(=O)(O)OP(=O)(O)O)[C@@H](O)[C@H]1O; assay: purified protein; conditions: co-substrate NAD+, 37 °C

| Protein | stoichiometry N (SEC) | Km (purified protein) [µM] |
| --- | --- | --- |
| B1 | 2 | 2200 |
| B2 | 4 |  |
